Reference: patent US20120184713A1, “Compositions and Methods for Modulation of Bone Density and Biomineralization” (priority 2011, published 2012)
Where two headings read alike, the source gives them in different places.

Experiments:
FAM20C [1] = molecular target: T1, FAM20C (Mus musculus, UniProt Q5MJS3); experiment: FAM20C in vitro kinase assay with dephosphorylated alpha-Casein as substrate; type: biochemical; settings: 5 minute assays
T1 construct: His (from vector pcDNA3.1/V5-His B) (C); made in house; host or cells: HEK293T
T1 sequence (Q5MJS3 88-579): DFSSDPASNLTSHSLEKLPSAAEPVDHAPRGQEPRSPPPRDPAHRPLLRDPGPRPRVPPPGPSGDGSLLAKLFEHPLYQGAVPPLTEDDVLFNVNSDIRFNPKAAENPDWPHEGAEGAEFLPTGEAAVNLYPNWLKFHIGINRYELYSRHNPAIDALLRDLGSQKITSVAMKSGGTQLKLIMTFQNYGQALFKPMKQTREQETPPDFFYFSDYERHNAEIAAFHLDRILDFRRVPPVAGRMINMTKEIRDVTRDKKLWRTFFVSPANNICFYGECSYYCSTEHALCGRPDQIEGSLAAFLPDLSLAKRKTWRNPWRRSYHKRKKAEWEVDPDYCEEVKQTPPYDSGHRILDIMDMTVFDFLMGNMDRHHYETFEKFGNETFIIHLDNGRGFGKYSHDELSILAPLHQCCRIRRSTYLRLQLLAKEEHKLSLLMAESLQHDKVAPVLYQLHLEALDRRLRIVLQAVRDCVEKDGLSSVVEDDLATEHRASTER
Procedure: For FAM20C:V5 purification, pcDNA-FAM20C:V5 was transfected to HEK293T cells, and FAM20C:V5 was purified from conditioned media using anti-V5 agarose beads (Sigma). Condition media were incubated with anti-V5 affinity gel (Sigma) overnight at 4° C. Agarose beads were collected by centrifugation, and washed 5 times with TBS. Proteins were eluted using V5 peptides in TBS (Sigma, final concentration: 100 μg/ml). For purification of OPN:FLAG, BSP:FLAG, DMP1:FLAG, DSPP:FLAG and MEPE:FLAG, condition media were incubated with anti-FLAG M2 affinity gel (Sigma) overnight at 4° C. Agarose beads were collected by centrifugation, and washed 5 times with TBS. Purified quantification was performed on gels stained by SYPRO Ruby Protein Gel Stain (Invitrogen), using BSA as a standard.
FAM20C kinase assays were performed in 10 μl reactions, with 500 μM ATP, including 3 μCi (0.05 μM) of [gamma-^32P]ATP (6000 Ci/mmol, PerkinElmer), 50 mM Tris (pH 7.0), 10 mM MnCl2, 0.1% BSA, purified FAM20C:V5 (5 ng, […]), and dephosphorylated alpha-Casein (0.1 μg, Sigma). […] Radioactivity within the gels was detected using a Molecular Dynamics Phosphor Imager. For quantitation of gamma-^32P incorporation, bands were cut out of the gels using the Phosphor Imager pictures as a reference, and then counted by liquid scintillation using a Beckman Coulter LC6500. […]

[2] = test system: Golgi apparatus casein kinase (G-CK); settings: literature value (ref. 20), cited from earlier work
FAM20C [3] = molecular target: T1, FAM20C; experiment: FAM20C kinase assay with peptide substrates (P81 phosphocellulose paper); type: biochemical; settings: in vitro kinase reaction, FIG. 6
Procedure: FAM20C kinase assays were performed in 10 μl reactions, with 500 μM ATP, including 3 μCi (0.05 μM) of [gamma-^32P]ATP (6000 Ci/mmol, PerkinElmer), 50 mM Tris (pH 7.0), 10 mM MnCl2, 0.1% BSA, purified FAM20C:V5 (5 ng, […]), and dephosphorylated alpha-Casein (0.1 μg, Sigma). The kinase reaction was linear at 5 minutes, and the reaction rate was dependent on enzyme and substrate concentrations. Reactions were stopped by adding SDS sample buffer and boiling, and one half of the reaction volume was subjected to SDS-PAGE. Radioactivity within the gels was detected using a Molecular Dynamics Phosphor Imager. For quantitation of gamma-^32P incorporation, bands were cut out of the gels using the Phosphor Imager pictures as a reference, and then counted by liquid scintillation using a Beckman Coulter LC6500. Myelin Basic Protein (0.5 μg, NEB) and affinity-purified Fat2-3:FLAG (0.1 μg)^8 were used as control substrates. To determine pH-dependency, the pH in the reaction buffer was varied using Tris-HCl buffers. Synthesized peptides were designed from the sequence of human Osteopontin 115Asp to 132Leu, adding three basic amino acids (Arg-Lys-Arg) to its N-terminus to enable peptide binding to phosphocellulose paper (P81, Upstate). Peptides were purchased from Peptide2.0. Peptide1 ([…]; SEQ ID NO: 41), Peptide2 ([…]; SEQ ID NO: 42), Peptide3 ([…]; SEQ ID NO: 43), and Peptide4 ([…]; SEQ ID NO: 44).
(§1) FAM20C kinase assay with peptides substrates were performed in 10 μl reactions, with 500 μM ATP, including 3 μCi (0.05 μM) of [gamma-^32P]ATP (6000 Ci/mmol, PerkinElmer), 50 mM Tris (pH 7.0), 10 mM MnCl2, 0.1% BSA, purified FAM20C:V5 and peptides. Casein Kinase I (500 units, NEB) was used as a control kinase. mutant versions (5 ng, […]), and peptides (2.5 μg, 1 nmol as a standard condition. 250 ng, […] in FAM20C mutants). Reactions were stopped by adding 1.5 μl 0.1N—HCl, and one half of the reaction volume was pipetted on to P81 phospho-cellulose filter paper^27. The filter papers were washed with 0.5% phosphoric acid and subjected to liquid scintillation counting.

Casein Kinase I = molecular target: T2, Casein Kinase I (Rattus norvegicus, UniProt Q06486); experiment: Casein Kinase I control kinase assay with peptide substrates; type: biochemical; settings: in vitro kinase reaction, FIG. 6
T2 construct: purchased NEB
T2 sequence (Q06486 1-317 limits assumed): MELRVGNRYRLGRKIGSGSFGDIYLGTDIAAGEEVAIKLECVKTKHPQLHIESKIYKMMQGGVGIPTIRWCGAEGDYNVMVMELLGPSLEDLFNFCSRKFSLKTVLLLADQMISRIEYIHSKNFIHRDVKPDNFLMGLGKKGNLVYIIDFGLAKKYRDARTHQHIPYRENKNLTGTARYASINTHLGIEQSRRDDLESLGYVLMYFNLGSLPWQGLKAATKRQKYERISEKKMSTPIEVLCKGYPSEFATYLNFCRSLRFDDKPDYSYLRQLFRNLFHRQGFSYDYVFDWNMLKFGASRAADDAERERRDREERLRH
Procedure: as §1

Compound	phosphorylation of peptide by FAM20C (FAM20C [3])	phosphorylation of peptide by CKI (Casein Kinase I)	further results
Nc1ncnc2c1ncn2[C@@H]1O[C@H](COP(=O)(O)OP(=O)(O)OP(=O)(O)O)[C@@H](O)[C@H]1O [ATP]			Km (FAM20C [1]; FAM20C, dephosphorylated alpha casein as substrate, read-out: Km for ATP): 78 µM; Km ([2]; read-out: Km for ATP originally measured for G-CK): 80 µM
Casein			Km (FAM20C [1]; linear reaction conditions, average of several independent experiments, read-out: Michaelis constant (Km) of FAM20C for Casein): 1.5 µM; Km ([2]; read-out: Km for α-Casein for G-CK): 12 µM
RKRDDAHQSDEAHHSDESDEL [OPN-ASARM^2S-A, derivative in which the other two Ser residues were changed to Ala]	still efficiently phosphorylated	reduced, but similar levels of activity	
RKRDDSHQADESHHADEADEL [OPN-ASARM^3S-A, peptide in which only the three G-CK consensus sites were changed to Ala]	phosphorylated much less effectively	reduced, but similar levels of activity	
RKRDDSHQSDESHHSDESDEL [OPN-ASARM, amino acids 115-132 of human OPN with N-terminal Arg-Lys-Arg]	is a FAM20C substrate	phosphorylated	
